{"source": "IntAct's records for PubMed 16234233", "parents": {"B1": {"name": "Acid-sensing ion channel 3 (Rattus norvegicus (Rat)), O35240 (parent)", "chain": "MKPRSGLEEAQRRQASDIRVFASSCTMHGLGHIFGPGGLTLRRGLWATAVLLSLAAFLYQVAERVRYYGEFHHKTTLDERESHQLTFPAVTLCNINPLRRSRLTPNDLHWAGTALLGLDPAEHAAYLRALGQPPAPPGFMPSPTFDMAQLYARAGHSLEDMLLDCRYRGQPCGPENFTVIFTRMGQCYTFNSGAHGAELLTTPKGGAGNGLEIMLDVQQEEYLPIWKDMEETPFEVGIRVQIHSQDEPPAIDQLGFGAAPGHQTFVSCQQQQLSFLPPPWGDCNTASLDPDDFDPEPSDPLGSPRPRPSPPYSLIGCRLACESRYVARKCGCRMMHMPGNSPVCSPQQYKDCASPALDAMLRKDTCVCPNPCATTRYAKELSMVRIPSRASARYLARKYNRSESYITENVLVLDIFFEALNYEAVEQKAAYEVSELLGDIGGQMGLFIGASLLTILEILDYLCEVFQDRVLGYFWNRRSAQKRSGNTLLQEELNGHRTHVPHLSLGPRPPTTPCAVTKTLSASHRTCYLVTRL", "partner": "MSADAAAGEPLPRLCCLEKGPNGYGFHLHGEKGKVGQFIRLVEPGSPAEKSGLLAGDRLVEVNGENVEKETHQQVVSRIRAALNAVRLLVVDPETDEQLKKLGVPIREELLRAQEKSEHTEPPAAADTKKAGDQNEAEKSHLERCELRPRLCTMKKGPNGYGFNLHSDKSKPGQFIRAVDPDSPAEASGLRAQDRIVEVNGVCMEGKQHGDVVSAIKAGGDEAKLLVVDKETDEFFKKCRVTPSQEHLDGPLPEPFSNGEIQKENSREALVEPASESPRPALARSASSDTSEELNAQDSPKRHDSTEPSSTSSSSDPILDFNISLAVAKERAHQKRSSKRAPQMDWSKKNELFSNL"}}}
{"variants_of": "B1", "conditions": "with nhrf1_rat Nherf1, Q9JJ19"}
{"variant": "S523G", "effect of a mutation on the interaction": "decreasing interaction"}
{"variant": "S523D", "effect of a mutation on the interaction": "increasing interaction"}
